We go through nine proteins from article doi:10.1101/498196 (bioRxiv, 2018).

The data set “bead aggregation assay” deals with the molecule itself. The data set can be described thus: bead aggregation assay.
The data set “crystal structure” concerns the molecule itself. The data set can be described thus: crystal structure.
The data set “AUC” concerns the molecule itself. The data set can be described thus: AUC.

B1: PCDH1 EC1-7Fc (Fc fusion)
chain: TRVVYKVPEEQPPNTLIGSLAADYGFPDVGHLYKLEVGAPYLRVDGKTGDIFTTETSIDREGLRECQNQLPGDPCILEFEVSITDLVQNGSPRLLEGQIEVQDINDNTPNFASPVITLAIPENTNIGSLFPIPLASDRDAGPNGVASYELQAGPEAQELFGLQVAEDQEEKQPQLIVMGNLDRERWDSYDLTIKVQDGGSPPRASSALLRVTVLDTNDNAPKFERPSYEAELSENSPIGHSVIQVKANDSDQGANAEIEYTFHQAPEVVRRLLRLDRNTGLITVQGPVDREDLSTLRFSVLAKDRGTNPKSARAQVVVTVKDMNDNAPTIEIRGIGLVTHQDGMANISEDVAEETAVALVQVSDRDEGENAAVTCVVAGDVPFQLRQASETGSDSKKKYFLQTTTPLDYEKVKDYTIEIVAVDSGNPPLSSTNSLKVQVVDVNDNAPVFTQSVTEVAFPENNKPGEVIAEITASDADSGSNAELVYSLEPEPAAKGLFTISPETGEIQVKTSLDREQRESYELKVVAADRGSPSLQGTATVLVNVLDCNDNDPKFMLSGYNFSVMENMPALSPVGMVTVIDGDKGENAQVQLSVEQDNGDFVIQNGTGTILSSLSFDREQQSTYTFQLKAVDGGVPPRSAYVGVTINVLDENDNAPYITAPSNTSHKLLTPQTRLGETVSQVAAEDFDSGVNAELIYSIAGGNPYGLFQIGSHSGAITLEKEIERRHHGLHRLVVKVSDRGKPPRYGTALVHLYVNETLANRTLLETLLGHSLDTPLDIDIAGDPEYERSKQRGN
Turning to B1, in “bead aggregation assay”, the binding result is “binds”.

B2: PCDH1 EC1-7Fc C375S C548S (Fc fusion)
chain: TRVVYKVPEEQPPNTLIGSLAADYGFPDVGHLYKLEVGAPYLRVDGKTGDIFTTETSIDREGLRECQNQLPGDPCILEFEVSITDLVQNGSPRLLEGQIEVQDINDNTPNFASPVITLAIPENTNIGSLFPIPLASDRDAGPNGVASYELQAGPEAQELFGLQVAEDQEEKQPQLIVMGNLDRERWDSYDLTIKVQDGGSPPRASSALLRVTVLDTNDNAPKFERPSYEAELSENSPIGHSVIQVKANDSDQGANAEIEYTFHQAPEVVRRLLRLDRNTGLITVQGPVDREDLSTLRFSVLAKDRGTNPKSARAQVVVTVKDMNDNAPTIEIRGIGLVTHQDGMANISEDVAEETAVALVQVSDRDEGENAAVTSVVAGDVPFQLRQASETGSDSKKKYFLQTTTPLDYEKVKDYTIEIVAVDSGNPPLSSTNSLKVQVVDVNDNAPVFTQSVTEVAFPENNKPGEVIAEITASDADSGSNAELVYSLEPEPAAKGLFTISPETGEIQVKTSLDREQRESYELKVVAADRGSPSLQGTATVLVNVLDSNDNDPKFMLSGYNFSVMENMPALSPVGMVTVIDGDKGENAQVQLSVEQDNGDFVIQNGTGTILSSLSFDREQQSTYTFQLKAVDGGVPPRSAYVGVTINVLDENDNAPYITAPSNTSHKLLTPQTRLGETVSQVAAEDFDSGVNAELIYSIAGGNPYGLFQIGSHSGAITLEKEIERRHHGLHRLVVKVSDRGKPPRYGTALVHLYVNETLANRTLLETLLGHSLDTPLDIDIAGDPEYERSKQRGN
As to B2, in “bead aggregation assay”, the binding result is “binds”.

B3: PCDH1 EC1-7Fc V115R (Fc fusion)
chain: TRVVYKVPEEQPPNTLIGSLAADYGFPDVGHLYKLEVGAPYLRVDGKTGDIFTTETSIDREGLRECQNQLPGDPCILEFEVSITDLVQNGSPRLLEGQIEVQDINDNTPNFASPRITLAIPENTNIGSLFPIPLASDRDAGPNGVASYELQAGPEAQELFGLQVAEDQEEKQPQLIVMGNLDRERWDSYDLTIKVQDGGSPPRASSALLRVTVLDTNDNAPKFERPSYEAELSENSPIGHSVIQVKANDSDQGANAEIEYTFHQAPEVVRRLLRLDRNTGLITVQGPVDREDLSTLRFSVLAKDRGTNPKSARAQVVVTVKDMNDNAPTIEIRGIGLVTHQDGMANISEDVAEETAVALVQVSDRDEGENAAVTCVVAGDVPFQLRQASETGSDSKKKYFLQTTTPLDYEKVKDYTIEIVAVDSGNPPLSSTNSLKVQVVDVNDNAPVFTQSVTEVAFPENNKPGEVIAEITASDADSGSNAELVYSLEPEPAAKGLFTISPETGEIQVKTSLDREQRESYELKVVAADRGSPSLQGTATVLVNVLDCNDNDPKFMLSGYNFSVMENMPALSPVGMVTVIDGDKGENAQVQLSVEQDNGDFVIQNGTGTILSSLSFDREQQSTYTFQLKAVDGGVPPRSAYVGVTINVLDENDNAPYITAPSNTSHKLLTPQTRLGETVSQVAAEDFDSGVNAELIYSIAGGNPYGLFQIGSHSGAITLEKEIERRHHGLHRLVVKVSDRGKPPRYGTALVHLYVNETLANRTLLETLLGHSLDTPLDIDIAGDPEYERSKQRGN
In the case of B3, the binding result in “bead aggregation assay” is recorded as “binds”.

B4: hs PCDH1 EC1-4bc (domain or fragment)
chain: TRVVYKVPEEQPPNTLIGSLAADYGFPDVGHLYKLEVGAPYLRVDGKTGDIFTTETSIDREGLRECQNQLPGDPCILEFEVSITDLVQNGSPRLLEGQIEVQDINDNTPNFASPVITLAIPENTNIGSLFPIPLASDRDAGPNGVASYELQAGPEAQELFGLQVAEDQEEKQPQLIVMGNLDRERWDSYDLTIKVQDGGSPPRASSALLRVTVLDTNDNAPKFERPSYEAELSENSPIGHSVIQVKANDSDQGANAEIEYTFHQAPEVVRRLLRLDRNTGLITVQGPVDREDLSTLRFSVLAKDRGTNPKSARAQVVVTVKDMNDNAPTIEIRGIGLVTHQDGMANISEDVAEETAVALVQVSDRDEGENAAVTCVVAGDVPFQLRQASETGSDSKKKYFLQTTTPLDYEKVKDYTIEIVAVDSGNPPLSSTNSLKVQVVDVNDNA
B4: in “crystal structure”, the binding result is “binds”.

B5: PCDH1 EC1-4Fc (Fc fusion)
chain: TRVVYKVPEEQPPNTLIGSLAADYGFPDVGHLYKLEVGAPYLRVDGKTGDIFTTETSIDREGLRECQNQLPGDPCILEFEVSITDLVQNGSPRLLEGQIEVQDINDNTPNFASPVITLAIPENTNIGSLFPIPLASDRDAGPNGVASYELQAGPEAQELFGLQVAEDQEEKQPQLIVMGNLDRERWDSYDLTIKVQDGGSPPRASSALLRVTVLDTNDNAPKFERPSYEAELSENSPIGHSVIQVKANDSDQGANAEIEYTFHQAPEVVRRLLRLDRNTGLITVQGPVDREDLSTLRFSVLAKDRGTNPKSARAQVVVTVKDMNDNAPTIEIRGIGLVTHQDGMANISEDVAEETAVALVQVSDRDEGENAAVTCVVAGDVPFQLRQASETGSDSKKKYFLQTTTPLDYEKVKDYTIEIVAVDSGNPPLSSTNSLKVQVVDVNDNA
With B5, the binding result in the data set “bead aggregation assay” was “binds”.

B6: hs PCDH1 EC1-4mc (domain or fragment)
chain: TRVVYKVPEEQPPNTLIGSLAADYGFPDVGHLYKLEVGAPYLRVDGKTGDIFTTETSIDREGLRECQNQLPGDPCILEFEVSITDLVQNGSPRLLEGQIEVQDINDNTPNFASPVITLAIPENTNIGSLFPIPLASDRDAGPNGVASYELQAGPEAQELFGLQVAEDQEEKQPQLIVMGNLDRERWDSYDLTIKVQDGGSPPRASSALLRVTVLDTNDNAPKFERPSYEAELSENSPIGHSVIQVKANDSDQGANAEIEYTFHQAPEVVRRLLRLDRNTGLITVQGPVDREDLSTLRFSVLAKDRGTNPKSARAQVVVTVKDMNDNAPTIEIRGIGLVTHQDGMANISEDVAEETAVALVQVSDRDEGENAAVTCVVAGDVPFQLRQASETGSDSKKKYFLQTTTPLDYEKVKDYTIEIVAVDSGNPPLSSTNSLKVQVVDVNDNA
modifications: sugars observed at N248 (N-linked) and S430 (O-linked)
For the protein B6, the binding result in the data set “crystal structure” is “binds”.

B7: PCDH1 EC1-4 C375S (domain or fragment)
chain: TRVVYKVPEEQPPNTLIGSLAADYGFPDVGHLYKLEVGAPYLRVDGKTGDIFTTETSIDREGLRECQNQLPGDPCILEFEVSITDLVQNGSPRLLEGQIEVQDINDNTPNFASPVITLAIPENTNIGSLFPIPLASDRDAGPNGVASYELQAGPEAQELFGLQVAEDQEEKQPQLIVMGNLDRERWDSYDLTIKVQDGGSPPRASSALLRVTVLDTNDNAPKFERPSYEAELSENSPIGHSVIQVKANDSDQGANAEIEYTFHQAPEVVRRLLRLDRNTGLITVQGPVDREDLSTLRFSVLAKDRGTNPKSARAQVVVTVKDMNDNAPTIEIRGIGLVTHQDGMANISEDVAEETAVALVQVSDRDEGENAAVTSVVAGDVPFQLRQASETGSDSKKKYFLQTTTPLDYEKVKDYTIEIVAVDSGNPPLSSTNSLKVQVVDVNDNA
A word on the Kd: it is the equilibrium constant for the complex coming apart. Read a high Kd as weaker binding. What is called stoichiometry N is the number of molecules, sites or subunits per partner or assembly. As to B7, in “AUC”, the Kd is below 5 µM and the “stoichiometry N” value came to 2.

B8: PCDH1 EC1-5 C375S C548S (domain or fragment)
chain: TRVVYKVPEEQPPNTLIGSLAADYGFPDVGHLYKLEVGAPYLRVDGKTGDIFTTETSIDREGLRECQNQLPGDPCILEFEVSITDLVQNGSPRLLEGQIEVQDINDNTPNFASPVITLAIPENTNIGSLFPIPLASDRDAGPNGVASYELQAGPEAQELFGLQVAEDQEEKQPQLIVMGNLDRERWDSYDLTIKVQDGGSPPRASSALLRVTVLDTNDNAPKFERPSYEAELSENSPIGHSVIQVKANDSDQGANAEIEYTFHQAPEVVRRLLRLDRNTGLITVQGPVDREDLSTLRFSVLAKDRGTNPKSARAQVVVTVKDMNDNAPTIEIRGIGLVTHQDGMANISEDVAEETAVALVQVSDRDEGENAAVTSVVAGDVPFQLRQASETGSDSKKKYFLQTTTPLDYEKVKDYTIEIVAVDSGNPPLSSTNSLKVQVVDVNDNAPVFTQSVTEVAFPENNKPGEVIAEITASDADSGSNAELVYSLEPEPAAKGLFTISPETGEIQVKTSLDREQRESYELKVVAADRGSPSLQGTATVLVNVLDSNDND
B8: in “AUC”, the equilibrium dissociation constant (Kd) was below 5 µM and the “stoichiometry N” value was found to be 2.

B9: PCDH1 EC1-5 C375S C548S V115R (domain or fragment)
chain: TRVVYKVPEEQPPNTLIGSLAADYGFPDVGHLYKLEVGAPYLRVDGKTGDIFTTETSIDREGLRECQNQLPGDPCILEFEVSITDLVQNGSPRLLEGQIEVQDINDNTPNFASPRITLAIPENTNIGSLFPIPLASDRDAGPNGVASYELQAGPEAQELFGLQVAEDQEEKQPQLIVMGNLDRERWDSYDLTIKVQDGGSPPRASSALLRVTVLDTNDNAPKFERPSYEAELSENSPIGHSVIQVKANDSDQGANAEIEYTFHQAPEVVRRLLRLDRNTGLITVQGPVDREDLSTLRFSVLAKDRGTNPKSARAQVVVTVKDMNDNAPTIEIRGIGLVTHQDGMANISEDVAEETAVALVQVSDRDEGENAAVTSVVAGDVPFQLRQASETGSDSKKKYFLQTTTPLDYEKVKDYTIEIVAVDSGNPPLSSTNSLKVQVVDVNDNAPVFTQSVTEVAFPENNKPGEVIAEITASDADSGSNAELVYSLEPEPAAKGLFTISPETGEIQVKTSLDREQRESYELKVVAADRGSPSLQGTATVLVNVLDSNDND
Consider B9, for which, in the data set “AUC”, the “stoichiometry N” value stood at 2.
